acyl = not defined here

In one assay the target is clathrin/AP cages (Bos taurus, UniProt P49951). Description: NMR line-broadening with assembled clathrin/AP cages. The assay is classed as binding, bovine. Conditions: 2.5 mM peptide.
Assay [1] deals with assembled clathrin/AP cages (bovine (purified from bovine brain)) (UniProt P49951). The experiment in a line: NMR line-broadening.
Where [2] appears, read: 20 mg/ml cages, line-width with cages minus without.

clathrin/AP cages, sequence (P49951 whole entry): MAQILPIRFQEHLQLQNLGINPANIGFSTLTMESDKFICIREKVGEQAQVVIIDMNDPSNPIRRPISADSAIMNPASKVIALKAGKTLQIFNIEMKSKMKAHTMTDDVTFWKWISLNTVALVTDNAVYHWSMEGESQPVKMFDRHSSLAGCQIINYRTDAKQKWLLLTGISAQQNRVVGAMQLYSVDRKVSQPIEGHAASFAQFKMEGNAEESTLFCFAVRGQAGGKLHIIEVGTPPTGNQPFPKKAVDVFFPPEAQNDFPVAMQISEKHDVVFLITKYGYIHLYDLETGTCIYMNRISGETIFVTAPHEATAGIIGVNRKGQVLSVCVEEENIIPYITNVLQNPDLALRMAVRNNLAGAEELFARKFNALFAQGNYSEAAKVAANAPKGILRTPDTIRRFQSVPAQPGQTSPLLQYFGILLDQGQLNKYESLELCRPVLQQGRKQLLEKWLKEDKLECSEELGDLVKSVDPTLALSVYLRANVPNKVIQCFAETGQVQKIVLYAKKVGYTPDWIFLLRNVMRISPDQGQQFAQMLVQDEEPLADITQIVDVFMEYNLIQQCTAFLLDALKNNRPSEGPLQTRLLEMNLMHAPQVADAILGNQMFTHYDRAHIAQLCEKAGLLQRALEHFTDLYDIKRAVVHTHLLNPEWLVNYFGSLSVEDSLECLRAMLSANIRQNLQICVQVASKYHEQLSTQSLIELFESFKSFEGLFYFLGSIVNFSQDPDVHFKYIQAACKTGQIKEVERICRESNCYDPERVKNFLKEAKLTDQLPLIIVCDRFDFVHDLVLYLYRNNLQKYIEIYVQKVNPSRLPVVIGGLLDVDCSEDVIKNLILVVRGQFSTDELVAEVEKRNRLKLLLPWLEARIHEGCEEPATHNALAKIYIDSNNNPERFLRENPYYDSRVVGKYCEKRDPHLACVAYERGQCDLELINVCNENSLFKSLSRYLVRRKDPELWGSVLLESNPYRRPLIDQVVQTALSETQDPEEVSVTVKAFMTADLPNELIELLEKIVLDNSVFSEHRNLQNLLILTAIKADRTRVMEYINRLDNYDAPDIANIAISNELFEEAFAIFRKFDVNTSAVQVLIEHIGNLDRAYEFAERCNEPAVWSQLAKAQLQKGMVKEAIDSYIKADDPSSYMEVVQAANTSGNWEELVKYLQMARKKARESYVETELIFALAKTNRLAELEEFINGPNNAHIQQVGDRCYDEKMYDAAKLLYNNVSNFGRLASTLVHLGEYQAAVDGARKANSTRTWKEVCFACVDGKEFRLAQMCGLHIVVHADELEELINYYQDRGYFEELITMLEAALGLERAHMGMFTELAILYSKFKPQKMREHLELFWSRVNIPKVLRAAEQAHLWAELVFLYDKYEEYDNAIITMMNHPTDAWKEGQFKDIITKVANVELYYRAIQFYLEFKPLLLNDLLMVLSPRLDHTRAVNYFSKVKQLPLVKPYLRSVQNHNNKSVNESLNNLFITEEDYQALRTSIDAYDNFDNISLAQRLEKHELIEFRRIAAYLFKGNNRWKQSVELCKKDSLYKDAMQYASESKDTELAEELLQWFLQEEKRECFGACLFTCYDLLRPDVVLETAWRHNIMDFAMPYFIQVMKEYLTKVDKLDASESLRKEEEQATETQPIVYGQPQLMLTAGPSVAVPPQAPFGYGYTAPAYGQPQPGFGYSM
clathrin/AP cages, sequence (P04973 whole entry partner): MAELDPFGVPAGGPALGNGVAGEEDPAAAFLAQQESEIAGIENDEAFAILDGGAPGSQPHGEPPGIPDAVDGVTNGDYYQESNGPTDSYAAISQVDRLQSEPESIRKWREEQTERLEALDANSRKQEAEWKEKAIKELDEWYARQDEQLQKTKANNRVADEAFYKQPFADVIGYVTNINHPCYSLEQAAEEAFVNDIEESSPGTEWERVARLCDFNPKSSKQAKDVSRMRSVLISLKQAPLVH
clathrin/AP cages, sequence (P04975 whole entry partner): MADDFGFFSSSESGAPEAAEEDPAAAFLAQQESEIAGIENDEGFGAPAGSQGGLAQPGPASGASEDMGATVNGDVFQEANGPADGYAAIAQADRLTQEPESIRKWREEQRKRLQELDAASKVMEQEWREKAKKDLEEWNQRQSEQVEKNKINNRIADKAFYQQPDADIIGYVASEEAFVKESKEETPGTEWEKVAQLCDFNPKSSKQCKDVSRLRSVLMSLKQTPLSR
assembled clathrin/AP cages (bovine (purified from bovine brain)), sequence (P49951 whole entry, looked up): as the sequence (P49951 whole entry) above

With “FDNPVYQKTT (acyl-FDNPVYQKTT-OH; reading uncertain; also: acylated N-terminus, acyl group not given here)”, in the assay with clathrin/AP cages (setting [2]), the “line-broadening Phe εH” value was 3.60 Hz, the “line-broadening Thr10 γH” value came to 2.95 Hz, the “line-broadening Tyr εH” value was 3.45 Hz and the “line-broadening Val γH1” value is 5.20 Hz. Moreover, in the assay with clathrin/AP cages (setting [2]), the “line-broadening Val γH2” value worked out at 3.82 Hz. Besides, in the assay with clathrin/AP cages (20 mg/ml clathrin/AP cages, pH 6.0), the “cage-induced line-broadening (in words)” value was “pronounced increase in the line widths”.

As to acyl-FDNPVYQKTT-OH (reading uncertain; also: acylated NH2 terminus) [wild-type LDL receptor internalization motif decapeptide …], in assay [1], the line-broadening, Phe εH is 3.6 Hz; the line-broadening, Thr9 γH worked out at 3.18 Hz; the line-broadening, Thr10 γH was 2.95 Hz; the line-broadening, Tyr εH was found to be 3.45 Hz. In assay [1], this molecule came in with a line-broadening, Val γH1 of 5.2 Hz and a line-broadening, Val γH2 of 3.82 Hz.

The record behind these values is article PMC2133019 (The Journal of Cell Biology, 1998).
